For 1 substance, A492 results are on record in patent US20050250934A1.

This test addresses human IgE myeloma protein (American Biosystems, Inc. cat. no. A113) (human). Description: ELISA negative control run with each assay (human IgE ELISA and peptide ELISAs).

Sequence of human IgE myeloma protein (American Biosystems, Inc. cat. no. A113) (human) (heavy, as listed by the source): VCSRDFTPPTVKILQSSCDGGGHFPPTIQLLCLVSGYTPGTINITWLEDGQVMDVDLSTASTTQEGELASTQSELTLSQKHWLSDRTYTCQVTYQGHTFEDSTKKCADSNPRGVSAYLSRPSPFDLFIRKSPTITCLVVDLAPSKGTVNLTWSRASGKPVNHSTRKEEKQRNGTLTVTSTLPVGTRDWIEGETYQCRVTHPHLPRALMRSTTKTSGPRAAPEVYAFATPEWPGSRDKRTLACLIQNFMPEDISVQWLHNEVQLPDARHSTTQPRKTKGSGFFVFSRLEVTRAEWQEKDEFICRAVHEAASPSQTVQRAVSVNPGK

For the substance “diluted normal guinea pig control samples (antibody)”, the A492 is less than 0.15 A492.
